We go through 60 variants from the Human Domainome abundance scans (Beltran et al. 2025).

± gives the uncertainty stated by the source.

B1: Arginine-glutamic acid dipeptide repeats protein, residues 502 to 543; numbered along this chain, Q9P2R6 (parent)
chain: LKGYACRHCFTTTSKDWHHGGRENILLCTDCRIHFKKYGELP

The variants in the series derive from B1. The experiment in a line: abundance fitness (aPCA) (normalised: wild type 0, dead -1); higher = more abundant; growth selection in yeast, the domain comes from the species named. Particulars: Homo sapiens.
On to LKGYACRHCFTTTSKDWHHGGRENLLLCTDCRIHFKKYGELP [I25L], for which the abundance fitness was -0.05 ± 0.036.
In the case of LKGYACRHCFTTTSKDWHHGGRENWLLCTDCRIHFKKYGELP [I25W], the abundance fitness is -0.073 ± 0.034.
In the case of LKGYACRHCFTTTSKDWHHGGRENHLLCTDCRIHFKKYGELP [I25H] it was -0.169 ± 0.044; in that of LKGYACRHCFTTTSKDWHHGGRENCLLCTDCRIHFKKYGELP [I25C], -0.258 ± 0.065.
Turning to LKGYACRHCFTTTSKDWHHGGRENALLCTDCRIHFKKYGELP [I25A], the abundance fitness is -0.122 ± 0.035.
As for LKGYACRHCFTTTSKDWHHGGRENYLLCTDCRIHFKKYGELP [I25Y], the abundance fitness was -0.187 ± 0.11.
As to LKGYACRHCFTTTSKDWHHGGRENMLLCTDCRIHFKKYGELP [I25M], the abundance fitness was -0.15 ± 0.049.
Consider LKGYACRHCFTTTSKDWHHGGRENQLLCTDCRIHFKKYGELP [I25Q], for which the abundance fitness was -0.099 ± 0.047.
For the variant LKGYACRHCFTTTSKDWHHGGRENPLLCTDCRIHFKKYGELP [I25P], the abundance fitness is -0.141 ± 0.066.
As for LKGYACRHCFTTTSKDWHHGGRENDLLCTDCRIHFKKYGELP [I25D], the abundance fitness was -0.16 ± 0.059.
On to LKGYACRHCFTTTSKDWHHGGRENSLLCTDCRIHFKKYGELP [I25S], for which the abundance fitness is -0.185 ± 0.043.
With LKGYACRHCFTTTSKDWHHGGRENVLLCTDCRIHFKKYGELP [I25V], the abundance fitness is -0.015 ± 0.038.
As to LKGYACRHCFTTTSKDWHHGGRENELLCTDCRIHFKKYGELP [I25E], the abundance fitness is -0.048 ± 0.036.
With LKGYACRHCFTTTSKDWHHGGRENNLLCTDCRIHFKKYGELP [I25N], the abundance fitness is -0.298 ± 0.061.
Consider LKGYACRHCFTTTSKDWHHGGRENTLLCTDCRIHFKKYGELP [I25T], for which the abundance fitness is -0.04 ± 0.083.
LKGYACRHCFTTTSKDWHHGGRENFLLCTDCRIHFKKYGELP [I25F]: the abundance fitness is -0.213 ± 0.082.
With LKGYACRHCFTTTSKDWHHGGRENGLLCTDCRIHFKKYGELP [I25G], the abundance fitness is -0.264 ± 0.039.
For LKGYACRHCFTTTSKDWHHGGREHILLCTDCRIHFKKYGELP [N24H] the value was -0.094 ± 0.067; for LKGYACRHCFTTTSKDWHHGGRECILLCTDCRIHFKKYGELP [N24C], -0.349 ± 0.086; for LKGYACRHCFTTTSKDWHHGGREMILLCTDCRIHFKKYGELP [N24M], -0.107 ± 0.042.
With LKGYACRHCFTTTSKDWHHGGREEILLCTDCRIHFKKYGELP [N24E], the abundance fitness is -0.105 ± 0.041.
Turning to LKGYACRHCFTTTSKDWHHGGREPILLCTDCRIHFKKYGELP [N24P], the abundance fitness is -0.261 ± 0.049.
As to LKGYACRHCFTTTSKDWHHGGRESILLCTDCRIHFKKYGELP [N24S], the abundance fitness is 0 ± 0.035.
LKGYACRHCFTTTSKDWHHGGRERILLCTDCRIHFKKYGELP [N24R]: the abundance fitness is -0.146 ± 0.034.
Turning to LKGYACRHCFTTTSKDWHHGGREFILLCTDCRIHFKKYGELP [N24F], the abundance fitness was -0.242 ± 0.062.
In the case of LKGYACRHCFTTTSKDWHHGGREVILLCTDCRIHFKKYGELP [N24V], the abundance fitness was -0.297 ± 0.048.
Take LKGYACRHCFTTTSKDWHHGGRETILLCTDCRIHFKKYGELP [N24T]: the abundance fitness is -0.239 ± 0.046.
LKGYACRHCFTTTSKDWHHGGREGILLCTDCRIHFKKYGELP [N24G]: the abundance fitness was -0.026 ± 0.034.
In the case of LKGYACRHCFTTTSKDWHHGGREAILLCTDCRIHFKKYGELP [N24A] it was -0.146 ± 0.035.
In the case of LKGYACRHCFTTTSKDWHHGGREKILLCTDCRIHFKKYGELP [N24K], the abundance fitness was -0.157 ± 0.059.
Regarding LKGYACRHCFTTTSKDWHHGGREWILLCTDCRIHFKKYGELP [N24W], the abundance fitness was -0.189 ± 0.033.
For the variant LKGYACRHCFTTTSKDWHHGGRELILLCTDCRIHFKKYGELP [N24L], the abundance fitness was -0.191 ± 0.044.
For LKGYACRHCFTTTSKDWHHGGREYILLCTDCRIHFKKYGELP [N24Y], the abundance fitness is -0.249 ± 0.067.
In the case of LKGYACRHCFTTTSKDWHHGGREIILLCTDCRIHFKKYGELP [N24I] it was -0.299 ± 0.086; in that of LKGYACRHCFTTTSKDWHHGGHENILLCTDCRIHFKKYGELP [R22H], -0.221 ± 0.31; in that of LKGYACRHCFTTTSKDWHHGGNENILLCTDCRIHFKKYGELP [R22N], 0.008 ± 0.082.
For LKGYACRHCFTTTSKDWHHGGVENILLCTDCRIHFKKYGELP [R22V] the value was -0.039 ± 0.049.
Turning to LKGYACRHCFTTTSKDWHHGGYENILLCTDCRIHFKKYGELP [R22Y], the abundance fitness was determined as 0.113 ± 0.095.
Take LKGYACRHCFTTTSKDWHHGGFENILLCTDCRIHFKKYGELP [R22F]: the abundance fitness is -0.058 ± 0.1.
As for LKGYACRHCFTTTSKDWHHGGTENILLCTDCRIHFKKYGELP [R22T], the abundance fitness was found to be 0.011 ± 0.042.
LKGYACRHCFTTTSKDWHHGGIENILLCTDCRIHFKKYGELP [R22I]: the abundance fitness is -0.157 ± 0.07.
As for LKGYACRHCFTTTSKDWHHGGWENILLCTDCRIHFKKYGELP [R22W], the abundance fitness was -0.132 ± 0.039.
For LKGYACRHCFTTTSKDWHHGGAENILLCTDCRIHFKKYGELP [R22A], the abundance fitness turned out to be 0.044 ± 0.035.
Consider LKGYACRHCFTTTSKDWHHGGCENILLCTDCRIHFKKYGELP [R22C], for which the abundance fitness was -0.067 ± 0.048.
For LKGYACRHCFTTTSKDWHHGGGENILLCTDCRIHFKKYGELP [R22G] the value was -0.048 ± 0.033.
As for LKGYACRHCFTTTSKDWHHGGKENILLCTDCRIHFKKYGELP [R22K], the abundance fitness was found to be 0.071 ± 0.05.
Regarding LKGYACRHCFTTTSKDWHHGGPENILLCTDCRIHFKKYGELP [R22P], the abundance fitness was -0.027 ± 0.053.
For the variant LKGYACRHCFTTTSKDWHHGGSENILLCTDCRIHFKKYGELP [R22S], the abundance fitness was -0.055 ± 0.037.
For LKGYACRHCFTTTSKDWHHGGDENILLCTDCRIHFKKYGELP [R22D], the abundance fitness was -0.026 ± 0.041.
Regarding LKGYACRHCFTTTSKDWHHGGLENILLCTDCRIHFKKYGELP [R22L], the abundance fitness is -0.081 ± 0.043.
With LKGYACRHCFTTTSKDWHHGGMENILLCTDCRIHFKKYGELP [R22M], the abundance fitness was -0.172 ± 0.087.
Take LKGYACRHCFTTTSKDWHHGGQENILLCTDCRIHFKKYGELP [R22Q]: the abundance fitness came out at 0.029 ± 0.053.
Turning to LKGYACRHCFTTTSKDWHHGGEENILLCTDCRIHFKKYGELP [R22E], the abundance fitness is -0.02 ± 0.043.
With LKGYACRHCFTTTSKDWHHGGRENILLETDCRIHFKKYGELP [C28E], the abundance fitness was -0.685 ± 0.058.
As to LKGYACRHCFTTTSKDWHHGGRENILLHTDCRIHFKKYGELP [C28H], the abundance fitness was -0.872 ± 0.18.
For the variant LKGYACRHCFTTTSKDWHHGGRENILLFTDCRIHFKKYGELP [C28F], the abundance fitness was -0.789 ± 0.17.
For LKGYACRHCFTTTSKDWHHGGRENILLGTDCRIHFKKYGELP [C28G], the abundance fitness was -0.798 ± 0.046.
Consider LKGYACRHCFTTTSKDWHHGGRENILLATDCRIHFKKYGELP [C28A], for which the abundance fitness was -0.873 ± 0.052.
Take LKGYACRHCFTTTSKDWHHGRRENILLCTDCRIHFKKYGELP [G21R]: the abundance fitness was -0.369 ± 0.038.
Regarding LKGYACRHCFTTTSKDWHHGYRENILLCTDCRIHFKKYGELP [G21Y], the abundance fitness was -0.534 ± 0.26.
